± gives the uncertainty stated by the source.
B1: Cold shock protein CspB, residues 1 to 66; numbered along this chain, P41016 (parent)
chain: MQRGKVKWFNNEKGYGFIEVEGGSDVFVHFTAIQGEGFKTLEEGQEVSFEIVQGNRGPQAANVVKL

Variants of: B1
Test: abundance fitness (aPCA) (normalised: wild type 0, dead -1); higher = more abundant; growth selection in yeast, the domain comes from the species named
Conditions: Bacillus caldolyticus

Variant	abundance fitness
I33Y	-0.527 ± 0.069
I33Q	-0.381 ± 0.04
I33C	-0.127 ± 0.052
I33S	-0.422 ± 0.031
I33V	-0.024 ± 0.033
I33G	-0.41 ± 0.033
I33K	-0.456 ± 0.056
I33E	-0.477 ± 0.041
I33R	-0.484 ± 0.039
I33F	-0.111 ± 0.046
I33D	-0.369 ± 0.057
I33M	-0.144 ± 0.04
I33W	-0.462 ± 0.052
I33A	-0.311 ± 0.038
I33L	-0.082 ± 0.03
G35D	-0.004 ± 0.076
G35L	-0.127 ± 0.025
G35I	-0.108 ± 0.061
G35C	0.02 ± 0.069
G35K	-0.112 ± 0.056
G35Q	0.001 ± 0.045
G35M	0.002 ± 0.035
G35E	-0.001 ± 0.038
G35N	-0.06 ± 0.11

Variant	abundance fitness
G35P	-0.172 ± 0.045
G35F	-0.067 ± 0.059
T31I	-0.314 ± 0.053
T31Y	-0.3 ± 0.055
T31V	-0.345 ± 0.043
T31E	-0.087 ± 0.068
T31A	-0.134 ± 0.049
T31G	-0.079 ± 0.044
T31N	-0.127 ± 0.066
T31K	-0.066 ± 0.054
T31M	-0.13 ± 0.044
T31R	-0.044 ± 0.028
T31S	-0.011 ± 0.032
T31F	-0.431 ± 0.052
T31H	-0.074 ± 0.077
T31W	-0.289 ± 0.035
T31D	-0.141 ± 0.11
T31C	-0.146 ± 0.05
T31Q	-0.132 ± 0.061
F27Q	-0.208 ± 0.04
F27Y	0.003 ± 0.054
F27A	-0.206 ± 0.037
F27E	-0.183 ± 0.041
F27G	-0.229 ± 0.031

Variant	abundance fitness
F27S	-0.212 ± 0.03
F27M	-0.169 ± 0.049
F27R	-0.176 ± 0.028
F27P	-0.161 ± 0.042
F27I	-0.208 ± 0.056
F27N	-0.335 ± 0.1
F27L	-0.187 ± 0.029
F27H	-0.075 ± 0.077
F27C	-0.243 ± 0.047
F27W	-0.102 ± 0.035
H29A	-0.532 ± 0.39
H29I	-0.538 ± 0.16
H29N	-0.228 ± 0.12
H29L	-0.48 ± 0.12
H29V	-0.506 ± 0.28
H29S	-0.345 ± 0.14
H29Q	-0.174 ± 0.15
H29M	-0.274 ± 0.13
H29K	-0.197 ± 0.13
H29T	-0.28 ± 0.12
H29Y	-0.149 ± 0.052
H29R	-0.281 ± 0.11
Q34I	-0.169 ± 0.087
Q34K	0.01 ± 0.053

Variant	abundance fitness
Q34H	-0.123 ± 0.15
Q34N	0.053 ± 0.11
Q34R	0.001 ± 0.034
Q34W	-0.049 ± 0.043
Q34M	0.006 ± 0.042
Q34P	-0.062 ± 0.04
Q34G	-0.005 ± 0.041
Q34V	0.048 ± 0.045
Q34T	-0.008 ± 0.051
Q34D	0.079 ± 0.11
Q34F	0.052 ± 0.14
Q34S	-0.003 ± 0.047
Q34Y	-0.073 ± 0.082
Q34C	-0.071 ± 0.066
Q34L	-0.02 ± 0.031
V26W	-0.23 ± 0.035
V26D	-0.529 ± 0.06
V26Q	-0.173 ± 0.04
V26H	-0.132 ± 0.075
V26G	-0.573 ± 0.036
V26M	-0.056 ± 0.043
V26E	-0.372 ± 0.043
V26S	-0.195 ± 0.029
V26Y	-0.074 ± 0.054

Variant	abundance fitness
V26I	-0.017 ± 0.045
V26P	-0.566 ± 0.038
V26R	-0.248 ± 0.032
V26F	-0.11 ± 0.054
V26C	-0.053 ± 0.048
V26K	-0.251 ± 0.059
F30A	-0.035 ± 0.047
F30S	-0.047 ± 0.036
F30K	-0.016 ± 0.057
F30P	-0.227 ± 0.05
F30L	-0.103 ± 0.027
F30Y	0.011 ± 0.041
F30D	-0.188 ± 0.068
F30W	-0.026 ± 0.051
F30V	-0.049 ± 0.047
F30N	-0.07 ± 0.077
F30H	-0.023 ± 0.067
F30G	-0.089 ± 0.04
F30M	-0.169 ± 0.047
F30Q	-0.025 ± 0.074
F30I	-0.087 ± 0.068
F30C	-0.091 ± 0.052
F30T	-0.127 ± 0.05
A32H	-0.099 ± 0.061

Variant	abundance fitness
A32D	-0.129 ± 0.055
A32Q	0.023 ± 0.055
A32S	-0.032 ± 0.034
A32R	-0.084 ± 0.036
A32K	-0.044 ± 0.049
A32Y	-0.263 ± 0.063
A32F	-0.129 ± 0.058
A32P	-0.507 ± 0.043
A32C	-0.083 ± 0.048
A32G	-0.02 ± 0.037
A32M	-0.103 ± 0.048
A32W	-0.351 ± 0.05
A32L	-0.472 ± 0.025
A32T	-0.105 ± 0.039
A32N	-0.045 ± 0.058
A32I	-0.666 ± 0.068
V28N	-0.999 ± 0.34
V28G	-0.638 ± 0.041
V28S	-0.355 ± 0.03
V28W	-0.675 ± 0.036
V28T	-0.05 ± 0.047
V28E	-1.1 ± 0.15
V28F	-0.062 ± 0.058
V28Y	-0.27 ± 0.061

Variant	abundance fitness
V28P	-0.693 ± 0.088
V28A	-0.1 ± 0.045
V28C	0.017 ± 0.048
V28M	-0.153 ± 0.055
V28I	-0.048 ± 0.05
V28R	-0.993 ± 0.05
V28D	-0.912 ± 0.14
V28L	-0.107 ± 0.029
V28Q	-0.901 ± 0.084
V28H	-1.04 ± 0.21
D25K	-0.093 ± 0.046
D25Y	-0.231 ± 0.06
D25G	-0.257 ± 0.047
D25N	-0.047 ± 0.08
D25I	-0.214 ± 0.063
D25T	-0.073 ± 0.041
D25S	-0.053 ± 0.032
D25Q	-0.073 ± 0.054
D25H	-0.102 ± 0.064
D25W	-0.26 ± 0.036
D25M	-0.153 ± 0.043
D25P	-0.093 ± 0.036
D25V	-0.141 ± 0.035
